Experimental data published in the nanobody polyreactivity screen of Harvey et al. (2022).

Assay: yeast display, Sf9 membrane polyspecificity reagent, FACS + sequencing; frameworks hold sequencing errors
Outline: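 Synthetic nanobody libraries on Saccharomyces cerevisiae BJ5465 were galactose-induced for 36–48 hours, stained 1 hour at 4 °C with 10% biotinylated, detergent-solubilized Sf9 membrane reagent and enriched on streptavidin microbeads. FACS then separated cells into low and high (top ~1%) gates by anti-HA (expression) and streptavidin (reagent binding) fluorescence. Genes were colony-PCR amplified, MiSeq 2 × 250 sequenced and CDR-length filtered. A clone's polyreactivity label is that of its gate of origin.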

| Sequence | polyreactivity (PSR sort gate) |
| --- | --- |
| QVQLVESGGGLVQAGGSLRLSCAASGRTFISNTMGWYRQAPGKERELVAALSGSGGSTYYADSVKGRFTISRDNAKNSVYLNMNRLKPEDTAVYYCNAPYVRQTRFGQSVRNNYWGQGTQVTVSS | high polyreactivity |
| QVQLEESGGRLVQAGGSLRLSCAASGRTFDGNTMGWYRQAPGKERELVAAITYSGTSTYYADSVKGRFTISRDNAKNTVDVQMNSLKPEDTAVYYCNKPRYYSTYRRYYWGQGTQVTVSS | high polyreactivity |
| QDQLVESGGGLFQAGGSLRLICAASGFIFSSYDMGWDRQAPGKERELVAAITTVGSRIYADSVKGRFTISRDNAKNTVDLQMNCLKPEDSAVYVCATVPGGSWLVLWWSTGGDDEYWGHGTQVTVSS | low polyreactivity |
| QVQLEESGGGLVQAGGSLRLSCAASGSTFSYYAMGWYRQAPGKERELVAAITYSVGSTYYADSVKGRFTISRDNAKNTVYLQMNSLKPEDTAVYYCNKRYYYSRANYPYDYWGQGTQVTVSS | low polyreactivity |
| QVKLVESGGGLVQAGGSLRISCAASGRTFGYNAMGWYRQAPGKERELVAGISGRTASTYYADSVKGRFTISRDNAKNTVYLQMNSLKPVDTEVYYCATQFGSIYRYDYWGQGTEVTVSS | high polyreactivity |
| QVQLVESGGGLVQAGGSLRLSCADSGRIFTSYVMGWYRPAPGQERELVAAITRSGGSTYYADSVKGRFTNSRDNAKNTVYLQMNSLKPEDTAVYYCIALTRRQKGGEGGGYWGQGTQVTVSS | high polyreactivity |
| QVQLVESGGGLVQAGGRLRLSCAASGFTFPWYTMGWYRQAPGKERELVAAISRSGGSTYYADSVKGRFTISRDNAKNTVYLQLNSLKPEDTAVYYCAAEQTRWPDITRYDYWGQGTQVTVSS | high polyreactivity |
| QVQLVDSGGGLVQAGGSLRLSCAASGSIFRYYAMGWYRQAPGKEREFVAAITYSGGSTHYADSVKGRFTISRDNEKNTVYLQMNSLKPEDTAVYYCAADYYWRVHYGYWGLGTQVTVSS | high polyreactivity |
| QVQLVESGVGLVQAGGSLRLICDASGRIYSYYAIGWYRQAPGKETELVASISRSGGSTYYADSVKGRFTISRDNAKNTVYLQMNSLKPEETAVYYCAAYKYVRSYPYDYWGQGTQVTVSS | low polyreactivity |
| QVQLVESGGGLVQAGGSLRLSCAASGSIFRSNAMGWYRPAPGKERELVAAISRRGGSTYYADSVKGRFTISRDNAKNPVYLQMNSLKPEDTAVYYCAAPTIVSGHDSWGQGTQVTVSS | high polyreactivity |
| QVQLVESGGGLVQAGGSLRLRCAASGSIFYRNPMGWYRQAPGKESELVAAITSRGGRTYYADSVKGRFTISRDNAKNTVYLQMNSLKPEDTAVYYCNKRDVYSTSDYDYWGQGTQVTVSS | high polyreactivity |
| QVQLVESGGGLVQAGGSLRLSCAASGLIFDWYAMGWYRPAPGKERELVADISNSGGSTNYADSVKGRFTISRDSAFNTVYLQMNSLKPEDTEVYYCAVDYYYPTLTIGYYYWGQVTQVTVSS | low polyreactivity |
| QVQLVESGGGLVQAGGSLRLSCAASGYILYPYAMGWYRQAPGKERELVAAIRQRGGSTYYADSVKGRFTISRDYAKNTVYLQMNSLKPEDTAVYYCAAYLSPKRALTRGYGYWGQGTQVTVSS | high polyreactivity |
| QVQLVESGGGLVQAGGSLRLSCAASGSTFVFYAMGWYRQAPGKERELVASISFRGGSTRYADSVKGRFTISRDNAKNTVYLQMNSLKPEDTAVYYCNARPFYRYYYWGQGTQVTVSS | high polyreactivity |
| QVQLVESGGGLVQAGGSLRLSCAASGSTFTYYAMGWYRQAPGKERELVAAITSGGSTYYADSVKGRFTISRDNAKNTVYLQMNSLKPEDTAVYYCNRGSWRYSTMEYWGQGTQVTVSS | high polyreactivity |
| QVQLVESGGGFVQAGGSLSLSCAASGRIFGINAMLWYRQAPGKVRELVAAISSSGANTYYADSVKGRFTISRDNAKNTVYLQMNRLKPEDTAVYYCATKASSYQSPYYYWGQGTQVTVSS | high polyreactivity |
| QVQLVESGGGLVQAGGSLRLSCAASGRTFHKNAMGWYRQAPGQERELVAAISGSGGSTYYADSVKGRFTISRDNAKNTVYLQMNSLKPEDTAVYYCAADSSYYEEDYWGQGNQVTVSS | high polyreactivity |
| QVQLVESGRGLVQAGGSLRLSCAASGRIFNLNAMGWYRQAPGKERELVAAITRGGRTIYADSVKGRFTISRDNAQNTVYLQMNSLKPEDTAVYYCAAAYYGSHGRYDYWGQGTQVTVSS | high polyreactivity |
| QVQLVESGGGLVQAGGSLRLSCAASGRTFNAYAMGWYRQAPGKERELVAAITWSGGSTYYAHSVKGRFTISRDNAKNTVYLQMNSLKPEDTAVYYCAARSFTNIRSVSSPYRYYYWGQGTQVTVSS | high polyreactivity |
| QVQLVESGGGLVQAGGSLRLSCASSGRTSVINAMGWYRQAPGKERELVATITWSGASTYYADSVKGRFTISRDNAKNTVYLQMNSLKPEDTAVYYCNAESLYTPYNDTSLTVEYGYWGQGTQVTVSS | low polyreactivity |
| QVQLVESGGGLVQAGGSLRLSCAASGSIFYDNAMGWYRQAPGKERELVAAITIDGSTYADSVKGRFTISRDNAKYTVYLQMNSLKPEDTAVYYCAAEWDTNFWYDYWGQGTQVTVSS | low polyreactivity |
| QVQLVESGGGLVQAGGSLRFSCAASGSTFKRYTMGWYRQAPGKERELVAAISTSSGSTYYADSVKGRFTISRDNAKNSVYLQMHSLKPEDTAVYYCAAVRLRQTYPKYNYWGQGTQVTVSS | high polyreactivity |

| Sequence | polyreactivity (PSR sort gate) |
| --- | --- |
| QVQLVESGGGLVQEGGSLRLSCAASGSTFNAYAMGWYRQAPGKERELVATINDDGGTTYYADSVKGRFTISRDNAKNTVYLQMNSLKPEDTAVYYCAASGFDTSYETAPSDSWGYDYWGQGTQVTVSS | low polyreactivity |
| QVQLVESGGGLVQAGGSLRLSCAASGYTLYQYAMGWYRPAPVKERELVAAISRRGGSTYYADSVKGRFTISRDNAKNTVYLLMNSLKPEDTAVYYCNNANLYRFWEMDYWGQGTQVSVSS | high polyreactivity |
| QVQLVESGGGLVQAGGSLRLSCAASGRIFPYNAMGWYRHAPGKERELVAAITWSGGRTYYADSVKGRFTISRDNAKNTVYLQMNSLKPEDTAVYYCAASYRGRTNDYWGQGTQVTVSS | high polyreactivity |
| QVQLVDSGGGLVQAGGSLRLSCAASGRTYDTNAMGWNRQAPRKETELVAVITARGGNTSYADSVKGRFTISRDNAKNTVYLQMNSLKPEDTAVYYCAALYFKVGYYTYEYWGQGTQVTVSS | low polyreactivity |
| QVQLVESGGGLVQAGGSLRLSCAASGFIYYYNAMGWYSQAPGKERELVAAISSRGTSTYYADSVKGRFTISRENAKNTVYLQMNSLKPEDTAVYYCNALGNFGMDYWGQGNQVTVSS | high polyreactivity |
| QVQLVESGGGLVQAGGSLRLSCAASGRISNDYAMGWYRQAPGKERELVATITFSGGDTYYADSVKGRFTISRDNAKNTVYLQMNSLKPEDTAVYYCAASKWRSFSGGWWRLLFDYWGQGTQVTVSS | low polyreactivity |
| QVQLVESGGGLVQAGGSLRLSCAASGSTFWVYAMGWYRQAPGKERELVAGISNSGGNTYYADSVKGRFTISRDNAKNTVYLQMNSLKPEDTAVYYCNVDRGNPVPPSEYWGQGTQVSVSS | low polyreactivity |
| QVQLVESGGCLVQAGGSLRLSCASSGFTFDIYAMGWYRQAPGKERELVATISFTGDTTSYADSGKGRFTISRDNAKNTVYLQMNSLKPEDTAVYYCAADGSYPLSVGRENLHYAEFDYWGKGTQVTVSS | low polyreactivity |
| QVQLVESGGGLVQAGGSLRLSCAASGRTFQLYAMGWYRQAPGKQRELVAAIRTGGSTNYADSVKGRFTISRDNAKNTVYLQMNSLKPEDTAVYYCAAVQRTDRSAHYSWGQGTQVTVSS | low polyreactivity |
| QVQLVESGGGLVQAGGSLRLSCAASGSTFVYNTMGWYRQAPGKERELVAAISKSGTNTFYADSVKGRFTISRDNAKNTVYLQMNSLKPEDTAVYYCAVRSVPRWFTELDYWGQGTQVTVSS | low polyreactivity |
| QVQLVESGGGLVQAGGSLRLSCAATGFIFPINAMGWYRQAPGKERELVAAITGGGSTSYADSVKGRFTISRDNAKNTVYLQMNSLKPEDTAVYYCATDRLTYTKYGYWGQGTQVTVSS | low polyreactivity |
| QVQLVESGGGLVQAGGSLRLSCAASGSTFGYNAMGWYRQAPGKERELVAAINFRSDRTFYADSVKGRFTISRDNAKNTVYLQMNSLKPEDTAVYYCAAKPTTYYGNSDYWGQGTQVTVSS | high polyreactivity |
| QVQLVETGGGLVQAGGSLRLSCAASGRTFTKYAMGWYRQAPGKERELVAAISGNGGSTHYADSVKGRFTISRDNAKNTVYLQMNSLKPEDTAVYYCAADHRHKSNSWGQGTQVTVSS | low polyreactivity |
| QVQLVESGGGLVQAGGSLRLSCASSGSTFPPYAMGWYRQAPGKERELVAAISYRDTGTYYADSVKGRFTISRDNAKNTVYFQMNSLKPEDTAVYYCAADYHIVYYFLYYYWGQGTQVTVSS | low polyreactivity |
| QVQLVESGGGLVQAGGSLRLSCAASGRILPYNVMGWYRQAPGKEREFVAAITGSGGDTYYADSVKGRFTISRDNAKNTVYLQMNSLKPEDTAVYYCAAAPYIGGSFGQTPGSGYWGQGTQVTVSS | low polyreactivity |
| QVQLVESGGGLVQAGGSLRLSCAASGRIFPYYAMGWYRQAPGKERELVAAISQSGGRTYYADSVKGRFTISRDNAKNTVYLQMNSLKPEDTAVYYCIAYTYSSGYDYWGQGTQVTVSS | high polyreactivity |
| QVQLVESGGGLVQAGGSLRLSCAASGFTLARYAMGWYRQAPGKERELVAAITKRGGSTYYADSVKGRFTISRDNAKNTVYLQMNSLKPEDTAVYYCATYKRSSHYDYWGQGTQVTVSS | high polyreactivity |
| QVQLVESGGGLVQAGGSLRLSCAASGSTFTPNDMGWYRQAPGKERELVAAINSGGGRTYYADSVKGRFTISRDNAKNTVYLQMNSLKPEDTAVYYCAKRLYISGYGYGYWGQGTQVTVSS | high polyreactivity |
| QVHLVESGGGLVQAGGSLRLSCAASGITFYRYAMGWYRLAPGTERELVAAISSSGGSTYYADSVKGRFTISRDNAKNTVYLQMNSLKPEDTAVYYCAAQYNVPRDKYYFWGQGTQVTVSS | high polyreactivity |
| QVQLVESGGGLVQAGGSLRLSCAASVSIMARNAMVWYRQAPGKERELVAAISNSGSTNYADSVKGRFTISRDNAKNTVYLQMNSLKPEDTAVYYCAKDADHGWFEYDYWGQGTQVTVSS | low polyreactivity |
| QVQLVESGGGLVQAGGSLRLSCAASGVIFEYTAMGGYRQAPGKERELVAAITSSGGSTYYADSVKGRFTISRDKAKNTVYLQMNSLKPEDTAVYYCARVRRSAYYQDYYSWGQGTQVTVSS | high polyreactivity |
